Experimental findings from article PMC7383879, “HSI2/VAL1 and HSL1/VAL2 function redundantly to repress DOG1 expression in Arabidopsis seeds and seedlings” are described below.

In this data set the target is T1, HSI2 B3 domain (B3HSI2) (Arabidopsis thaliana, UniProt Q8W4L5 295-396).
T1 sequence: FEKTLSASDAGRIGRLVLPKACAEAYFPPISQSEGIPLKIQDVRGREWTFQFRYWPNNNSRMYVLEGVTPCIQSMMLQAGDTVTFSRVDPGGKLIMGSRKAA
In words: EMSA; 10 mM Tris pH 7.9, 30 mM KCl, 0.1 mM EDTA, 1 mM DTT, 0.05% NP-40, 6.5% glycerol, 50 ng/ml (so in the source) poly(dIdC), 50 fmol probe, 20 min at room temperature. The note with it: protein: recombinant; tags: His-Trx (Results); His (Methods, legend); label: 3' biotin; blunt. On the technique in general: In EMSA bound probe runs differently from free probe, usually more slowly.

B1: mRY1 probe (dsDNA)
DNA 1: GTCCTCCACGTAATGGACTACTGCGTTATTTCTTTT
DNA 2: AAAAGAAATAACGCAGTAGTCCATTACGTGGAGGAC
As for B1, the binding result was “no binding”.

B2: RY1 probe (dsDNA)
DNA 1: GTCCTCCACGTAATGCATGCATGCGTTATTTCTTTT
DNA 2: AAAAGAAATAACGCATGCATGCATTACGTGGAGGAC
For the molecule B2, the binding result is “binds”.
